Test results reported in the supplement of paper PMC7877785.
± gives the uncertainty stated by the source.

Assay: self-splicing fitness, log relative to wild type (ln ratio); higher = more splicing; Tetrahymena group I intron in knt gene, E. coli kanamycin selection, DiMSum; sequences stand for … in CUCUCU…GGAGGGAAAAGUUAUCAGGCAUGCACCUGGUAGCUAGUCUUUAAACCAAUAGAUUGCAUCGGUUUAAAAGGCAAGACCGUCAAAUUGCGGGAAAGGGGUCAACAGCCGUUCAGUACCAAGUCUCAGGGGAAACUUUGAGAUGGCCUUGCAAAGGGUAUGGUAAUAAGCUGACGGACAUGGUCCUAACCACGCAGCCAAGUCCUAAGUCAACAGAUCUUCUGUUGAUAUGGAUGCAGUUCACAGACUAAAUGUCGGUCGGGGAAGAUGUAUUCUUCUCAUAAGAUAUAGUCGGACCUCUCCUUAAUGGGAGCUAGCGGAUGAAGUGAUGCAACACUGGAGCCGCUGGGAACUAAUUUGUAUGCGAAAGUAUAUUGAUUAGUUUUGGAGUACUCGUGGUCG
Outline: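 Fitness was computed with DiMSum as the error-weighted combination of replicate fold changes, kanamycin versus none, each normalised to wild type. The library randomised all eight intron nucleotides of the P1ex region, with the intron placed in the knt kanamycin-resistance gene on pET-22b(+) in E. coli BL21(DE3). Six replicate transformations were grown overnight at 37°C or 30°C on LB agar with or without 25 μg/mL kanamycin, plus 100 μg/mL carbenicillin, 50 μM IPTG and 0.2% rhamnose. Pooled colonies were amplicon-sequenced on an Illumina HiSeq 2500.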

CCACAGCAAUAUUACGUCAC
self-splicing fitness (ln) (30 °C): -3.34 ± 0.15
self-splicing fitness (ln) (37 °C): -2.86 ± 0.22

UGGGAGCAAUAUUACGACAU
self-splicing fitness (ln) (30 °C): -3.84 ± 0.039
self-splicing fitness (ln) (37 °C): -2.9 ± 0.05

AUUUAGCAAUAUUACGGGCG
self-splicing fitness (ln) (30 °C): -1.77 ± 0.12
self-splicing fitness (ln) (37 °C): -0.764 ± 0.12

ACGCAGCAAUAUUACGCCUC
self-splicing fitness (ln) (30 °C): -2.83 ± 0.17
self-splicing fitness (ln) (37 °C): -1.22 ± 0.19

GCCUAGCAAUAUUACGAGAC
self-splicing fitness (ln) (30 °C): -1.85 ± 0.16
self-splicing fitness (ln) (37 °C): 0.662 ± 0.12

UCAUAGCAAUAUUACGGAAU
self-splicing fitness (ln) (30 °C): -3.32 ± 0.33
self-splicing fitness (ln) (37 °C): -3.09 ± 0.47

ACUCAGCAAUAUUACGUUUA
self-splicing fitness (ln) (30 °C): -1.54 ± 0.078
self-splicing fitness (ln) (37 °C): -0.51 ± 0.086

GUGCAGCAAUAUUACGGGGG
self-splicing fitness (ln) (30 °C): -4.19 ± 0.23
self-splicing fitness (ln) (37 °C): -2.58 ± 0.18

AGCGAGCAAUAUUACGACAU
self-splicing fitness (ln) (30 °C): -1.32 ± 0.015
self-splicing fitness (ln) (37 °C): -0.624 ± 0.034

UGGAAGCAAUAUUACGAGGA
self-splicing fitness (ln) (30 °C): -2.94 ± 0.4
self-splicing fitness (ln) (37 °C): -2.82 ± 0.4

CUAUAGCAAUAUUACGCGGU
self-splicing fitness (ln) (30 °C): -3.7 ± 0.24
self-splicing fitness (ln) (37 °C): -2.29 ± 0.22

ACCCAGCAAUAUUACGACAG
self-splicing fitness (ln) (30 °C): -3.36 ± 0.12
self-splicing fitness (ln) (37 °C): -1.67 ± 0.11

UUGUAGCAAUAUUACGUGGG
self-splicing fitness (ln) (30 °C): -4.04 ± 0.46
self-splicing fitness (ln) (37 °C): -2.06 ± 0.24

CAUUAGCAAUAUUACGCGGU
self-splicing fitness (ln) (30 °C): -2.75 ± 0.33
self-splicing fitness (ln) (37 °C): -2.05 ± 0.42

AGACAGCAAUAUUACGGGAA
self-splicing fitness (ln) (30 °C): -2.68 ± 0.18
self-splicing fitness (ln) (37 °C): -1.38 ± 0.14

UGCGAGCAAUAUUACGUGUU
self-splicing fitness (ln) (30 °C): -3.58 ± 0.43
self-splicing fitness (ln) (37 °C): -2.47 ± 0.32

AGUCAGCAAUAUUACGGAGG
self-splicing fitness (ln) (30 °C): -2.93 ± 0.13
self-splicing fitness (ln) (37 °C): -1.31 ± 0.15

GCGAAGCAAUAUUACGACUG
self-splicing fitness (ln) (30 °C): -1.72 ± 0.14
self-splicing fitness (ln) (37 °C): -0.66 ± 0.14

AGGAAGCAAUAUUACGACCA
self-splicing fitness (ln) (30 °C): -0.504 ± 0.06
self-splicing fitness (ln) (37 °C): -0.317 ± 0.096

UUUUAGCAAUAUUACGUCUG
self-splicing fitness (ln) (30 °C): -0.654 ± 0.14
self-splicing fitness (ln) (37 °C): -0.153 ± 0.16

AGGAAGCAAUAUUACGGGCC
self-splicing fitness (ln) (30 °C): -3.5 ± 0.42
self-splicing fitness (ln) (37 °C): -0.18 ± 0.2

GAUCAGCAAUAUUACGAUCC
self-splicing fitness (ln) (30 °C): -3.69 ± 0.37
self-splicing fitness (ln) (37 °C): -2.18 ± 0.39

GUGGAGCAAUAUUACGGGCC
self-splicing fitness (ln) (37 °C): -0.665 ± 0.48

ACGAAGCAAUAUUACGGACG
self-splicing fitness (ln) (30 °C): -1.55 ± 0.13
self-splicing fitness (ln) (37 °C): -0.00573 ± 0.18

ACGAAGCAAUAUUACGUUUC
self-splicing fitness (ln) (30 °C): -2.31 ± 0.11
self-splicing fitness (ln) (37 °C): -2.18 ± 0.17

AAUAAGCAAUAUUACGUACA
self-splicing fitness (ln) (30 °C): -0.815 ± 0.1
self-splicing fitness (ln) (37 °C): -0.842 ± 0.11

AUAGAGCAAUAUUACGCCGU
self-splicing fitness (ln) (30 °C): -0.866 ± 0.21
self-splicing fitness (ln) (37 °C): 0.511 ± 0.26

AACAAGCAAUAUUACGUUUG
self-splicing fitness (ln) (30 °C): -2.87 ± 0.096
self-splicing fitness (ln) (37 °C): -2.46 ± 0.12

CCGGAGCAAUAUUACGUGUU
self-splicing fitness (ln) (30 °C): -3.46 ± 0.24
self-splicing fitness (ln) (37 °C): -2.01 ± 0.19

AUUAAGCAAUAUUACGUACG
self-splicing fitness (ln) (30 °C): -1.15 ± 0.13
self-splicing fitness (ln) (37 °C): -0.777 ± 0.14

AGGUAGCAAUAUUACGCACU
self-splicing fitness (ln) (30 °C): -1.32 ± 0.017
self-splicing fitness (ln) (37 °C): -0.862 ± 0.035

GACUAGCAAUAUUACGGACU
self-splicing fitness (ln) (30 °C): -0.117 ± 0.11
self-splicing fitness (ln) (37 °C): -0.611 ± 0.14

GCCUAGCAAUAUUACGACCC
self-splicing fitness (ln) (30 °C): -1.59 ± 0.21
self-splicing fitness (ln) (37 °C): -0.272 ± 0.25
